In paper PMC5484534 (Molecular cell, 2017):

B1: PPIG: human nuclear cyclophilin (protein, UniProt Q13427 1-754, looked up)
Peptidyl-prolyl cis-trans …: MGIKVQRPRCFFDIAINNQPAGRVVFELFSDVCPKTCENFRCLCTGEKGTGKSTQKPLHYKSCLFHRVVKDFMVQGGDFSEGNGRGGESIYGGFFEDESFAVKHNKEFLLSMANRGKDTNGSQFFITTKPTPHLDGHHVVFGQVISGQEVVREIENQKTDAASKPFAEVRILSCGELIPKSKVKKEEKKRHKSSSSSSSSSSDSDSSSDSQSSSDSSDSESATEEKSKKRKKKHRKNSRKHKKEKKKRKKSKKSASSESEAENLEAQPQSTVRPEEIPPIPENRFLMRKSPPKADEKERKNRERERERECNPPNSQPASYQRRLLVTRSGRKIKGRGPRRYRTPSRSRSRDRFRRSETPPHWRQEMQRAQRMRVSSGERWIKGDKSELNEIKENQRSPVRVKERKITDHRNVSESPNRKNEKEKKVKDHKSNSKERDIRRNSEKDDKYKNKVKKRAKSKSRSKSKEKSKSKERDSKHNRNEEKRMRSRSKGRDHENVKEKEKQSDSKGKDQERSRSKEKSKQLESKSNEHDHSKSKEKDRRAQSRSRECDITKGKHSYNSRTRERSRSRDRSRRVRSRTHDRDRSRSKEYHRYREQEYRRRGRSRSRERRTPPGRSRSKDRRRRRRDSRSSEREESQSRNKDKYRNQESKSSHRKENSESEKRMYSKSRDHNSSNNSREKKADRDQSPFSKIKQSSQDNELKSSMLKNKEDEKIRSSVEKENQKSKGQENDHVHEKNKKFDHESSPGTDEDKSG
B2: PPIL1: human nuclear cyclophilin (protein, UniProt Q9Y3C6 1-166, looked up)
Peptidyl-prolyl cis-trans …: MAAIPPDSWQPPNVYLETSMGIIVLELYWKHAPKTCKNFAELARRGYYNGTKFHRIIKDFMIQGGDPTGTGRGGASIYGKQFEDELHPDLKFTGAGILAMANAGPDTNGSQFFVTLAPTQWLDGKHTIFGRVCQGIGMVNRVGMVETNSQDRPVDDVKIIKAYPSG
B3: PPIL3: human nuclear cyclophilin (protein, UniProt Q9H2H8 2-161, looked up)
Peptidyl-prolyl cis-trans …: SVTLHTDVGDIKIEVFCERTPKTCENFLALCASNYYNGCIFHRNIKGFMVQTGDPTGTGRGGNSIWGKKFEDEYSEYLKHNVRGVVSMANNGPNTNGSQFFITYGKQPHLDMKYTVFGKVIDGLETLDELEKLPVNEKTYRPLNDVHIKDITIHANPFAQ
modifications: His6-GST tag
B4: PPIL2: human nuclear cyclophilin (protein, UniProt Q13356 1-520, looked up)
RING-type E3 …: MGKRQHQKDKMYITCAEYTHFYGGKKPDLPQTNFRRLPFDHCSLSLQPFVYPVCTPDGIVFDLLNIVPWLKKYGTNPSNGEKLDGRSLIKLNFSKNSEGKYHCPVLFTVFTNNTHIVAVRTTGNVYAYEAVEQLNIKAKNFRDLLTDEPFSRQDIITLQDPTNLDKFNVSNFYHVKNNMKIIDPDEEKAKQDPSYYLKNTNAETRETLQELYKEFKGDEILAATMKAPEKKKVDKLNAAHYSTGKVSASFTSTAMVPETTHEAAAIDEDVLRYQFVKKKGYVRLHTNKGDLNLELHCDLTPKTCENFIRLCKKHYYDGTIFHRSIRNFVIQGGDPTGTGTGGESYWGKPFKDEFRPNLSHTGRGILSMANSGPNSNRSQFFITFRSCAYLDKKHTIFGRVVGGFDVLTAMENVESDPKTDRPKEEIRIDATTVFVDPYEEADAQIAQERKTQLKVAPETKVKSSQPQAGSQGPQTFRQGVGKYINPAATKRAAEEEPSTSATVPMSKKKPSRGFGDFSSW
B5: PPWD: human nuclear cyclophilin (protein, UniProt Q96BP3 2-646, looked up)
Peptidylprolyl isomerase …: AAESGSDFQQRRRRRRDPEEPEKTELSERELAVAVAVSQENDEENEERWVGPLPVEATLAKKRKVLEFERVYLDNLPSASMYERSYMHRDVITHVVCTKTDFIITASHDGHVKFWKKIEEGIEFVKHFRSHLGVIESIAVSSEGALFCSVGDDKAMKVFDVVNFDMINMLKLGYFPGQCEWIYCPGDAISSVAASEKSTGKIFIYDGRGDNQPLHIFDKLHTSPLTQIRLNPVYKAVVSSDKSGMIEYWTGPPHEYKFPKNVNWEYKTDTDLYEFAKCKAYPTSVCFSPDGKKIATIGSDRKVRIFRFVTGKLMRVFDESLSMFTELQQMRQQLPDMEFGRRMAVERELEKVDAVRLINIVFDETGHFVLYGTMLGIKVINVETNRCVRILGKQENIRVMQLALFQGIAKKHRAATTIEMKASENPVLQNIQADPTIVCTSFKKNRFYMFTKREPEDTKSADSDRDVFNEKPSKEEVMAATQAEGPKRVSDSAIIHTSMGDIHTKLFPVECPKTVENFCVHSRNGYYNGHTFHRIIKGFMIQTGDPTGTGMGGESIWGGEFEDEFHSTLRHDRPYTLSMANAGSNTNGSQFFITVVPTPWLDNKHTVFGRVTKGMEVVQRISNVKVNPKTDKPYEDVSIINITVK
B6: CWC27: human nuclear cyclophilin (protein, UniProt Q6UX04 2-472, looked up)
Spliceosome-associated …: SNIYIQEPPTNGKVLLKTTAGDIDIELWSKEAPKACRNFIQLCLEAYYDNTIFHRVVPGFIVQGGDPTGTGSGGESIYGAPFKDEFHSRLRFNRRGLVAMANAGSHDNGSQFFFTLGRADELNNKHTIFGKVTGDTVYNMLRLSEVDIDDDERPHNPHKIKSCEVLFNPFDDIIPREIKRLKKEKPEEEVKKLKPKGTKNFSLLSFGEEAEEEEEEVNRVSQSMKGKSKSSHDLLKDDPHLSSVPVVESEKGDAPDLVDDGEDESAEHDEYIDGDEKNLMRERIAKKLKKDTSANVKSAGEGEVEKKSVSRSEELRKEARQLKRELLAAKQKKVENAAKQAEKRSEEEEAPPDGAVAEYRREKQKYEALRKQQSKKGTSREDQTLALLNQFKSKLTQAIAETPENDIPETEVEDDEGWMSHVLQFEDKSRKVKDASMQDSDTFEIYDPRNPVNKRRREESKKLMREKKERR

What was measured:
BMAL1 TAD = test: Cyclophilin acceleration of TAD switch isomerization by 15N-1H ZZ-exchange NMR; type: biochemical, mouse; conditions: room temperature (22.68°C), 400 μM 15N BMAL1 TAD + 100 μM cyclophilin, 20 mM HEPES pH 7.0 (pH 7.5 for His6GST-PPIL3), 100 mM NaCl, 2 mM TCEP
[1] = ref Davis et al., 2010; cited from earlier work

Row | Molecule | activity on TAD switch isomerization, in words (BMAL1 TAD) | activity on generic peptide substrates [1]
1 | B1 | significantly increased the rate of isomerization in BMAL1 | 
2 | B2 | significantly increased the rate of isomerization in BMAL1 | 
3 | B3 | significantly increased the rate of isomerization in BMAL1 | 
4 | B4 | either not active on the TAD or had activity that was below the detection limit | lack activity on generic peptide substrates
5 | B5 | either not active on the TAD or had activity that was below the detection limit | 
6 | B6 | either not active on the TAD or had activity that was below the detection limit | lack activity on generic peptide substrates
